Assay [1] addresses anti-CMVpHLA antibody (available from Ajou University).
Assay [2] shares this target. The source holds these as a separate data set.
In assay [3] the target is pIgR (polymeric Ig receptor; R&D systems) (UniProt P01833). The assay is described as follows: ELISA, pIgR coated, anti-IgM-HRP; IMB-4011 = 100.
Assay [4] deals with Fcα/µ receptor (R&D systems) (UniProt Q8WWV6). The assay is described as follows: ELISA, Fcα/µ coated, anti-IgM-HRP; IMB-4011 = 100. On the technique in general: ELISA stands for enzyme-linked immunosorbent assay.
Assay [5] addresses Fcµ receptor (R&D systems) (UniProt O60667). The assay is described as follows: ELISA, Fcµ coated, anti-IgM-HRP; IMB-4011 = 100.
The target is the same in assay [6]. Nature of the assay: ELISA, Fcµ coated; IMB-4011 = 100 (Example 2-7).
The target in assay [7] is Fcα/µ receptor (R&D systems) (UniProt Q8WWV6). Nature of the assay: ELISA, Fcα/µ coated; IMB-4011 = 100 (Example 2-7).
Assay [8] concerns the target pIgR (polymeric Ig receptor; R&D systems) (UniProt P01833). The assay is described as follows: ELISA, pIgR coated; IMB-4011 = 100 (Example 2-7).
Assay [9] deals with conjugate of FcRn and β2m antigen (ACRO biosystems) (UniProt P55899).

A word on the Kd: it is the constant that tells how readily two partners part at equilibrium. In general, koff refers to a measure of how fast the partners let go of each other. Broadly, the kon is the second-order rate constant of association. As for CMVpHLA (peptide-MHC), in [1], the Kd amounted to 1.84 nM, the koff was determined as 0.00464 s⁻¹ and the kon is 2.52e+06 M⁻¹ s⁻¹.

In the case of “[(CMVpHLA)2-((GGGGS)3)2-(IgM Fc region)]5-(J chain) (from UniProt P01591 23-159) (Fc fusion)”, the Kd in assay [1] came out at 0.00622 nM.

In turn, “[(CMVpHLA)2-(IgA hinge region)2-(IgM Fc region)]5-(J chain) (from UniProt P01591 23-159) (Fc fusion)” returned a Kd in [1] of 0.00586 nM.

What is called EC50 (read off the curve) is the midpoint of the concentration-response curve. Read a high EC50 (read off the curve) as lower potency in that assay. Regarding “[(CMVpHLA)2-(IgD hinge region)2-(IgM Fc region)]5-(J chain) (from UniProt P01591 23-159) (Fc fusion)”, the EC50 (read off the curve) in [2] came to 0.02 nM. The substance further gave a Kd in [1] of 0.00681 nM.

In assay [1], “[(CMVpHLA)2-(IgD hinge region)2-(IgM Fc region)]6-(J chain)0 (Fc fusion)” showed a Kd of 0.0233 nM, a koff of 0.000197 s⁻¹ and a kon of 8.44e+06 M⁻¹ s⁻¹.

Regarding “[(CMVpHLA)2-(linker)0-(IgM Fc region)]5-(J chain) (from UniProt P01591 23-159) (Fc fusion)”, the EC50 (read off the curve) in assay [2] was determined as 0.01 nM. Also, in assay [1], the Kd came to 0.0102 nM.

As to “[(CMVpHLA)2-(linker)2-(IgG Fc region)-(IgM Fc region L126 deletion)]5-(J chain) (from UniProt P0DOX6 341-576; P01591 23-159) (Fc fusion)”, the Relative binding ability to pIgR (%) in assay [3] was found to be 6%. Further, the Relative binding ability to Fcα/µ receptor (%) in [4] was 1%. Besides, the Relative binding ability to Fcµ receptor (%) in assay [5] stood at 12%.

As to “[(CMVpHLA)2-(linker)2-(IgG Fc region)-(IgM Fc region L126G)]5-(J chain R106V) (from UniProt P0DOX6 341-576; P01591 23-159) (Fc fusion)”, the Relative binding ability to Fcµ receptor (%) in assay [6] was found to be 3%. The Relative binding ability to Fcα/µ receptor (%) in assay [7] came to 0.4%. For the same substance, the Relative binding ability to pIgR (%) in assay [8] came to 2%.

“[(CMVpHLA)2-(linker)2-(IgG Fc region)-(IgM Fc region L126G)]5-(J chain R106W) (from UniProt P0DOX6 341-576; P01591 23-159) (Fc fusion)” showed a Relative binding ability to Fcµ receptor (%) in [6] of 3%. The same substance returned a Relative binding ability to Fcα/µ receptor (%) in assay [7] of 0.5%. The Relative binding ability to pIgR (%) in [8] is 2%.

For “[(CMVpHLA)2-(linker)2-(IgG Fc region)-(IgM Fc region L126G)]5-(J chain) (from UniProt P0DOX6 341-576; P01591 23-159) (Fc fusion)”, in assay [5], the Relative binding ability to Fcµ receptor (%) was 7%.

With “[(CMVpHLA)2-(linker)2-(IgG Fc region)-(IgM Fc region L126S)]5-(J chain R106V) (from UniProt P0DOX6 341-576; P01591 23-159) (Fc fusion)”, in assay [6], the Relative binding ability to Fcµ receptor (%) was found to be 3%. In assay [7], this substance returned a Relative binding ability to Fcα/µ receptor (%) of 1%. In [8], this substance gave a Relative binding ability to pIgR (%) of 2%.

In assay [6], “[(CMVpHLA)2-(linker)2-(IgG Fc region)-(IgM Fc region L126S)]5-(J chain R106W) (from UniProt P0DOX6 341-576; P01591 23-159) (Fc fusion)” came in with a Relative binding ability to Fcµ receptor (%) of 3%. Also, the Relative binding ability to Fcα/µ receptor (%) in [7] came to 1%. This substance also returned a Relative binding ability to pIgR (%) in assay [8] of 3%.

Regarding “[(CMVpHLA)2-(linker)2-(IgG Fc region)-(IgM Fc region L126S)]5-(J chain) (from UniProt P0DOX6 341-576; P01591 23-159) (Fc fusion)”, in assay [3], the Relative binding ability to pIgR (%) was found to be 8%. The substance also had a Relative binding ability to Fcµ receptor (%) in [5] of 7%.

“[(CMVpHLA)2-(linker)2-(IgG Fc region)-(IgM Fc region N125K)]5-(J chain) (from UniProt P0DOX6 341-576; P01591 23-159) (Fc fusion)”: in assay [5], the Relative binding ability to Fcµ receptor (%) was determined as 7%.

For the substance “[(CMVpHLA)2-(linker)2-(IgG Fc region)-(IgM Fc region)]5-(J chain D105K) (from UniProt P0DOX6 341-576; P01591 23-159) (Fc fusion)”, the Relative binding ability to pIgR (%) in assay [3] worked out at 8%.

In assay [3], “[(CMVpHLA)2-(linker)2-(IgG Fc region)-(IgM Fc region)]5-(J chain N107K) (from UniProt P0DOX6 341-576; P01591 23-159) (Fc fusion)” had a Relative binding ability to pIgR (%) of 8%.

On to “[(CMVpHLA)2-(linker)2-(IgG Fc region)-(IgM Fc region)]5-(J chain R106 deletion) (from UniProt P0DOX6 341-576; P01591 23-159) (Fc fusion)”, for which the Relative binding ability to pIgR (%) in assay [3] was 4%. In assay [4], the Relative binding ability to Fcα/µ receptor (%) amounted to 1%. Further, the Relative binding ability to Fcµ receptor (%) in [5] is 59%.

In turn, “[(CMVpHLA)2-(linker)2-(IgG Fc region)-(IgM Fc region)]5-(J chain R106F) (from UniProt P0DOX6 341-576; P01591 23-159) (Fc fusion)” had a Relative binding ability to Fcα/µ receptor (%) in assay [4] of 7%.

With “[(CMVpHLA)2-(linker)2-(IgG Fc region)-(IgM Fc region)]5-(J chain) (from UniProt P0DOX6 341-576; P01591 23-159) (Fc fusion)”, the EC50 (read off the curve) in [9] was found to be 200 nM.
